For one assay, the target named is BSMV virions. Nature of the assay: immunogold labeling with γb antibody, TEM. The settings on record: virions purified from infected N. benthamiana leaves at 5 dpi; n = 13; parent: est. 48; read off a plot.
A further assay concerns the target CP-His (UniProt P04866). The assay can be described thus: GST pull-down. As to conditions: scale: relative anti-His band intensity.
Another assay has as its target GST-γb. The assay can be described thus: GST pull-down. The settings on record: scale: relative anti-His band intensity.
Assay [1] concerns the target γb protein of BSMV, expressed by the virus. Nature of the assay: immunogold labeling with γb antibody, TEM. As to conditions: virions purified from infected N. benthamiana leaves at 5 dpi; n = 13; parent: est. 48; read off a plot.
In assay [2] the target is BSMV virions (barley stripe mosaic virus (ND18 strain)). The assay can be described thus: immunogold labelling of purified virions (TEM); virions purified from infected leaves, adsorbed onto nickel grids, rabbit antiserum against the CRP 1:100 in BL buffer 2 h at room temperature, goat anti-rabbit 10 nm gold, TEM at 80 kV; also after 0.02 mM EDTA at 4°C for 12 h (fewer gold particles).

Assay [3] addresses γb-GFP-His (barley stripe mosaic virus (ND18 strain)). The assay can be described thus: MST; γb protein with 5 μM Zn^2+ in the buffer held constant, CP protein added as ligand; Monolith NT.115.
For assay [4], the target named is GST-γb (barley stripe mosaic virus (ND18 strain)). The assay can be described thus: pull-down; GST pull-down: purified GST-tag protein with His-tag protein in 50 mM Tris-HCl pH 6.8, 500 mM NaCl, 1.5% glycerol, 0.6% Triton-X 100, 0.1% Tween 20, 3 h at 4°C; with or without 10 μg RNaseA, Zn^2+ 2-200 μM, 20 μM other divalent cations, or EDTA (200 μM in Fig 4D and 4E); blots with anti-GST or anti-His.

The target in assay [5] is γb-GFP-His (barley stripe mosaic virus (ND18 strain)). Nature of the assay: MST; γb-GFP-His held constant (10 μM), CP-His titrated from 20 μM; PBS with 0.1% Tween 20, 25°C, 20% LED-power, 40% MST-power, Monolith NT.115; no Zn^2+ added.
The target is the same in assay [6]. The description is as above. This is another data set of the same source.

Regarding “γb protein of BSMV, expressed by the virus H85A”, the response with BSMV virions is 8%.

In the case of GST-γb H85A, the response in the assay with CP-His (EDTA (200 μM), parent: 0.20) turned out to be 0.23; in the assay with CP-His (no EDTA, parent: 1.00), 0.21.

For CP-His (from UniProt P04866) H13A, the response with GST-γb (EDTA (200 μM), parent: 0.05) was found to be 0.04; with GST-γb (no EDTA, parent: 1.00) it was 0.11.

With BSMV virions H13A, in assay [1], the response stood at 3%.

“γb protein of BSMV, expressed by the virus (natural protein)” gave a percent of virions labelled with gold particles (γb antibody) in assay [2] of 50.9%.

B1: CP-His (natural protein)
chain: MPNVSLTAKGGGHYIEDQWDTQVVEAGVFDDWWVHVEAWNKFLDNLRGINFSVASSRSQVAEYLAALDRDLPADVDRRFAGARGQIGSPNYLPAPKFFRLDKRTIAELTRLSRLTDQPHNNRDIELNRAKRATTNPSPPAQAPSENLTLRDVQPLKDSALHYQYVLIDLQSARLPVYTRKTFERELALEWIIPDAEEA
Consider B1, for which the Kd in assay [3] was 150 nM; in [5], 630 nM; in [6] it was 460 nM. In [4], this molecule returned a fold reduction of the pull-down with 200 μM EDTA of 5 fold.

Source of the values: paper PMC11213338.
